# Square brackets hold non-standard residues; d marks the D form. Ends that are not written are not given here. pS = N[C@@H](COP(=O)(O)O)C(=O)O; FAM = 5,6-carboxyfluorescein
# T1: 2xpS2 CTD diheptapeptide, FAM-labeled
# T1 construct: CTD diheptapeptide: two heptarepeats (Y1S2P3T4S5P6S7) of the C-terminal domain of RPB1, the largest Pol II subunit; source: synthetic peptide (Clonestar)
# T1 peptide: {FAM}-Y[pS]PTSPSY[pS]PTSPS
# T2: 2xpS2pS7 CTD diheptapeptide, FAM-labeled
# T2 construct: CTD diheptapeptide: two heptarepeats (Y1S2P3T4S5P6S7) of the C-terminal domain of RPB1, the largest Pol II subunit; source: synthetic peptide (Clonestar)
# T2 peptide: {FAM}-Y[pS]PTSP[pS]Y[pS]PTSP[pS]
# T3: 2xpS2pS5 CTD diheptapeptide, FAM-labeled
# T3 construct: CTD diheptapeptide: two heptarepeats (Y1S2P3T4S5P6S7) of the C-terminal domain of RPB1, the largest Pol II subunit; source: synthetic peptide (Clonestar)
# T3 peptide: {FAM}-Y[pS]PT[pS]PSY[pS]PT[pS]PS
# T4: PHF3 SPOC R1248A mutant (human, UniProt Q92576 1199-1356, R1248A)
# T4 sequence: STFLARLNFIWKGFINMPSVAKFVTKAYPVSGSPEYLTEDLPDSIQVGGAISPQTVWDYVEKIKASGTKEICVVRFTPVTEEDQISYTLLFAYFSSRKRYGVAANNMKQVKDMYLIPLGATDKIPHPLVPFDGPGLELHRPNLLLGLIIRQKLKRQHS
# T5: PHF3 SPOC domain (1199-1356aa), bacterially expressed (human, UniProt Q92576 1199-1356)
# T5 chain: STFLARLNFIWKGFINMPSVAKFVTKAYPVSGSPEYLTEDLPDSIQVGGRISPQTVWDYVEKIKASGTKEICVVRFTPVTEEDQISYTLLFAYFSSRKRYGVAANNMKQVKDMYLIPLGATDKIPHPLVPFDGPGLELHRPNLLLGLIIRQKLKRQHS
# Legend:
# [1] = molecular target: 2xpS5 CTD diheptapeptide, FAM-labeled; assay: fluorescence polarisation; fluorescence anisotropy; 10 nM FAM-labeled CTD peptide titrated with SPOC protein; 20 °C, 25 mM Tris-Cl pH 8, 25 mM NaCl, 1 mM DTT; one site saturation with non-specific binding model
# [2] = molecular target: 2xpS7 CTD diheptapeptide, FAM-labeled; assay: as above
# [3] = molecular target: T1, 2xpS2 CTD diheptapeptide, FAM-labeled; assay: as above
# [4] = molecular target: T2, 2xpS2pS7 CTD diheptapeptide, FAM-labeled; assay: as above
# [5] = molecular target: T3, 2xpS2pS5 CTD diheptapeptide, FAM-labeled; assay: as above
# [6] = molecular target: 2xpS2 CTD diheptapeptide, Atto-488 labeled; assay: fluorescence correlation spectroscopy (FCS); 15 nM Atto-488 labeled peptide with 40-0.2 µM SPOC, 20 °C; molar masses from diffusion times
# [7] = molecular target: 2xpS2pS5 CTD diheptapeptide, Atto-488 labeled; assay: as above
# PHF3 SPOC R1248A mutant = molecular target: T4, PHF3 SPOC R1248A mutant; assay: FP; 25 mM NaCl
# [8] = molecular target: T5, PHF3 SPOC domain (1199-1356aa), …; assay: FP; 100 mM NaCl
molecule,measurement,setting,value
"PHF3 SPOC domain (1199-1356aa), bacterially expressed (from UniProt Q92576 1199-1356) (domain or fragment)",Kd,[1],20 µM
same,Kd,[2],26 µM
same,Kd,[3],1.6 µM
same,Kd,[4],0.8 µM
same,Kd,[5],4.8 µM
same,stoichiometry N,[6],1
same,stoichiometry N,[7],1
"{FAM}-Y[pS]PT[pS]PSY[pS]PT[pS]PS [2xpS2pS5 CTD diheptapeptide, FAM-labeled]",Kd,PHF3 SPOC R1248A mutant,48.3 µM
"{FAM}-YSPT[pS]PSYSPT[pS]PS [2xpS5 CTD diheptapeptide, FAM-labeled]",Kd,PHF3 SPOC R1248A mutant,22.3 µM
"PHF3 SPOC R1248A mutant (domain or fragment, human, UniProt Q92576 1199-1356, looked up, Expression, purification and tag cleavage are told only for SPOC in general; source: E. coli Rosetta2 (DE3), purified (told for SPOC); not shown: His6, N-terminal, cleaved) STFLARLNFIWKGFINMPSVAKFVTKAYPVSGSPEYLTEDLPDSIQVGGAISPQTVWDYVEKIKASGTKEICVVRFTPVTEEDQISYTLLFAYFSSRKRYGVAANNMKQVKDMYLIPLGATDKIPHPLVPFDGPGLELHRPNLLLGLIIRQKLKRQHS",fold reduction of binding against PHF3 SPOC WT,[3]; both partners purified,> 10 fold
same,fold reduction of binding against PHF3 SPOC WT,[4]; both partners purified,> 10 fold
same,fold reduction of binding against PHF3 SPOC WT,[5]; both partners purified,> 10 fold
"{FAM}-Y[pS]PTSPSY[pS]PTSPS [2xpS2 CTD diheptapeptide, FAM-labeled]",Kd,[8],1.4 µM

# From PMC8526623, “PHF3 regulates neuronal gene expression through the Pol II CTD reader domain SPOC” (Nature Communications, 2021)
